Reference: the RNAGym collection of RNA variant scans (doi:10.1073/pnas.2313332121)
This sample holds only a part of the variants without activity.

B1: TPR 5TU (parent)
chain: GGAUCUUCUCGAUCUAACAAAAAAGACAAAUCUGCCACAAAGCUUGAGAGCAUCUUCGGAUGCAGAGGCGGCAGCCUUCGGUGGCGCGAUAGCGCCAACGUUCUCAACUAUGACACGCAAAACGCGUGCUCCGUUGAAUGGAGUUUAUCAUG

Variants of: B1
Assay: polymerase ribozyme fitness, log enrichment relative to wild type (log ratio); higher = more active; in vitro selection for triplet polymerase activity
Outline: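 One round of in vitro selection, in triplicate, was applied to PCR-built, transcribed mutant libraries of each subunit of a heterodimeric triplet polymerase ribozyme. The steps were annealing with a biotinylated primer, partner subunit and triplets, incubation frozen at −7 °C, gel excision of extended constructs, streptavidin-bead capture and RT-PCR. Fitness is the logarithm, base 2, of genotype enrichment over wild-type enrichment from inverse-variance-weighted replicate averages of Illumina-sequenced inputs and outputs, keeping genotypes with ≥10 input reads and ≥1 read per output.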

Compared with GGAUCUUCUCGAUCUAACAAAAAAGACAAAUCUGCCACAAAGCUUGAGAGCAUCUUCGGAUGCAGAGGCGGCAGCCUUCGGUGGCGCGAUAGUGCCAACGUUCUCAACUAUGAUACGCAAAACGCGUGCUCCGUUGAAUGGAGUUUAUCAUG, GGAUCUUCUCGAUCUAACAAAAAAGACAAAUCUGCCACAAAGCUUGAGAGCAUCUUCGGAUGCAGAGGCGGCAGCCUUCGGUGGCGCGAUAGUGCCAACGUUCUCAACUAUGACACGCAAAACGCGUUCUCCGUUGAAUGGAGUUUAUCAUG is lower in “polymerase ribozyme fitness (log ratio)” value: -2.54 for the first, -3.6 for the second.

First: GGAUCUUCUCGAUCUAACAAAAAAGACAAAUCUGCCACAAAGCUUGAGAGCAUCUUCGGAUGCAGAGGCGGCAGCCUUCGGUGGCGCGAUAGUGCCAACGUUCUCAACUAUGACACGCAAAACGCGUCCUCCGUUGAAUGGAGUUUAUCAUG
Second: GGAUCUUCUCGAUCUAACAAAAAAGACAAAUCUGCCACAAAGCUUGAGAGCAUCUUCGGAUGCAGAGGCGGCAGCCUUCGGUGGCGCGAUAGUGCCAACGUUCUCAACUAUGACACGCAAAACGCGUGCUCCGUUGAAUGGAGUUUAUCAAG
The “polymerase ribozyme fitness (log ratio)” value of the first is higher: -3.31 for the first, at most -4.2 for the second.

GGAUCUUCUCGAUCUAACAAAAAAGACAAAUCUGCCACAAAGCUUGAGAGCAUCUUCGGAUGCAGAGGCGGCAGCCUUCGGUGGCGCGAUAGUGCCAAUGUUCUCAACUAUGAGACGCAAAACGCGUGCUCCGUUGAAUGGAGUUUAUCAUG and GGAUCUUCUCGAUCUAACAAAAAAGACAAAUCUGCCACAAAGCUUGAGAGCAUCUUCGGAUGCAGAGGCGGCAGCCUUCGGUGGCGCGAUAGUGCCAACGUUCUCAACUAUGACACGCAAAACGCGUGCUCCUUUGAAUGGAGUUUAUCAUG are within 0.2 log units of each other in “polymerase ribozyme fitness (log ratio)” value: -3.73 for the first, -3.7 for the second.

Going from GGAUCUUCUCGAUCUAACAAAAAAGACAAAUCUGCCACAAAGCUUGAGAGCAUCUUCGGAUGCAGAGGCGGCAGCCUUCGGUGGCGCGAUAGUGCCAACGUUCUCAACUAUGACACGCAAAACGCGUGCUCCGUUGAAUGGAGUUUAUAAUG to GGAUCUUCUCGAUCUAACAAAAAAGACAAAUCUGCCACAAAGCUUGAGAGCAUCUUCGGAUGCAGAGGCGGCAGCCUUCGGUGGCGCGAUAGUGCCAACGUUCUCAACUAUGACACGCAAAACGCGUGCUCCGUUGAAUGGAGUUAAUCAUG, the “polymerase ribozyme fitness (log ratio)” value rises from -4.05 to -1.46.

Going from GGAUCUUCUCGAUCUAACAAAAAAGACAAAUCUGCCACAAAGCUUGAGAGCAUCUUCGGAUGCAGAGGCGGCAGCCUUCGGUGGCGCGAUAGUGCCAACGUUCUCAACUAUGACACGCAAAACGCGUGCUCCGUUGAAUGGAGUUGAUCAUG to GGAUCUUCUCGAUCUAACAAAAAAGACAAAUCUGCCACAAAGCUUGAGAGCAUCUUCGGAUGCAGAGGCGGCAGCCUUCGGUGGCGCGAUAGUGCCAACGUUCUCAACUAUGACACGCAAAACGCGUGCUCCGUUGAAUGAAGUUUAUCAUG, the “polymerase ribozyme fitness (log ratio)” value falls from -1.47 to -1.7.

First: GGAUCUUCUCGAUCUAACAAAAAAGACAAAUCUGCCACAAAGCUUGAGAGCAUCUUCGGAUGCAGAGGCGGCAGCCUUCGGUGGCGCGAUAGUGCCAACGUUCUCAACUAUGACAUGCAAAACGCGUGCUCCGUUGAAUGAAGUUUAUCAUG
Second: GGAUCUUCUCGAUCUAACAAAAAAGACAAAUCUGCCACAAAGCUUGAGAGCAUCUUCGGAUGCAGAGGCGGCAGCCUUCGGUGGCGCGAUAGUGCCAACGUUCUCAACUAUGACACGCAAAAUGCGCGCUCCGUCGAAUGGAGUUUAUCAUG
The “polymerase ribozyme fitness (log ratio)” value of the first is higher: -0.0845 for the first, at most -4.2 for the second.

GGAUCUUCUCGAUCUAACAAAAAAGACAAAUCUGCCACAAAGCUUGAGAGCAUCUUCGGAUGCAGAGGCGGCAGCCUUCGGUGGCGCGAUAGUGCCAACGUUCUCAACUAUGACAUGCAAAUCGCGUGCUCCGUUGAAUGGAGUUUAUCCUG and GGAUCUUCUCGAUCUAACAAAAAAGACAAAUCUGCCACAAAGCUUGAGAGCAUCUUCGGAUGCAGAGGCGGCAGCCUUCGGUGGCGCGAUAGUGCCAACGUUCUCAACUAUGACACGCAAAACGCGUGCUCCGUUGAAUGGAUUUUAUCAUG are within 0.2 log units of each other in “polymerase ribozyme fitness (log ratio)” value: -3.57 for the first, -3.38 for the second.

GGAUCUUCUCGAUCUAACAAAAAAGACAAAUCUGCCACAAAGCUUGAGAGCAUCUUCGGAUGCAGAGGCGGCAGCCUUCGGUGGCGCGAUAGUGCCAAGGUUCUCAACUAUGACACGCAAAACGCGUGCUCCGUUAAAUGGAGUGUAUCAUG and GGAUCUUCUCGAUCUAACAAAAAAGACAAAUCUGCCACAAAGCUUGAGAGCAUCUUCGGAUGCAGAGGCGGCAGCCUUCGGUGGCGCGAUAGUGCCAACGUUCUCAACUAUGACACGCAAAACGUGUGCUCCGUUGAAUGGAGUUUAUCAUG are within 0.2 log units of each other in “polymerase ribozyme fitness (log ratio)” value: -1.59 for the first, -1.43 for the second.

First: GGAUCUUCUCGAUCUAACAAAAAAGACAAAUCUGCCACAAAGCUUGAGAGCAUCUUCGGAUGCAGAGGCGGCAGCCUUCGGUGGCGCGAUAGUGCCAACGUUCUCAACUAUGACACGAAAAACGCGUGCUCCGUUGAAUGGAGGUUAUCAUG
Second: GGAUCUUCUCGAUCUAACAAAAAAGACAAAUCUGCCACAAAGCUUGAGAGCAUCUUCGGAUGCAGAGGCGGCAGCCUUCGGUGGCGCGAUAGUGCCAACGUUCUCAACUAUGACACGCAAAACGCGUGCUCCGUUGAAUGGAGUUUAUCAUU
The “polymerase ribozyme fitness (log ratio)” value of the first is higher: -1.06 for the first, -3.49 for the second.

For GGAUCUUCUCGAUCUAACAAAAAAGACAAAUCUGCCACAAAGCUUGAGAGCAUCUUCGGAUGCAGAGGCGGCAGCCUUCGGUGGCGCGAUAGUGCCAACGUUCUCAACUAUGACACGCAAAACGCGUGCUCCGUUGAAUGGAGUUUAUCAUA, the “polymerase ribozyme fitness (log ratio)” value was -3.11.
